Measured values published in the Immune Epitope Database (IEDB).

How the values were obtained:
[1] = biological target: HLA-C*14:02; test: IEDB peptide-MHC binding, purified MHC/direct/fluorescence; filed as Kd, often an IC50 or EC50 that approximates it; ≥ and ≤ were set here for values at or beyond the usual limits of such assays
[2] = biological target: HLA-B*07:02; test: IEDB peptide-MHC binding, purified MHC/competitive/fluorescence; filed as Kd, often an IC50 or EC50 that approximates it; ≥ and ≤ were set here for values at or beyond the usual limits of such assays; conditions: source organism: Yersinia pestis Antiqua
[3] = biological target: HLA-C*05:01; test: IEDB peptide-MHC binding, purified MHC/direct/fluorescence; filed as Kd, often an IC50 or EC50 that approximates it; ≥ and ≤ were set here for values at or beyond the usual limits of such assays
[4] = biological target: HLA-B*07:02; test: IEDB peptide-MHC binding, purified MHC/competitive/radioactivity; filed as Kd, often an IC50 or EC50 that approximates it; ≥ and ≤ were set here for values at or beyond the usual limits of such assays; conditions: source organism: SARS coronavirus Tor2
[5] = biological target: HLA-B*35:01; test: as above; conditions: source organism: SARS coronavirus Tor2
[6] = biological target: HLA-B*51:01; test: as above; conditions: source organism: SARS coronavirus Tor2
[7] = biological target: HLA-B*53:01; test: as above; conditions: source organism: SARS coronavirus Tor2
[8] = biological target: HLA-B*54:01; test: as above; conditions: source organism: SARS coronavirus Tor2
[9] = biological target: HLA-A*01:01; test: IEDB peptide-MHC binding, purified MHC/competitive/fluorescence; ≥ and ≤ were set here for values at or beyond the usual limits of such assays
[10] = biological target: HLA-A*02:01; test: as above; conditions: source organism: Zaire ebolavirus
[11] = biological target: HLA-C*08:02; test: IEDB peptide-MHC binding, purified MHC/direct/fluorescence; filed as Kd, often an IC50 or EC50 that approximates it; ≥ and ≤ were set here for values at or beyond the usual limits of such assays
[12] = biological target: HLA-A*01:01; test: IEDB peptide-MHC binding, purified MHC/competitive/fluorescence; filed as Kd, often an IC50 or EC50 that approximates it; ≥ and ≤ were set here for values at or beyond the usual limits of such assays
[13] = biological target: HLA-B*35:01; test: as above
[14] = biological target: HLA-C*12:03; test: IEDB peptide-MHC binding, purified MHC/direct/fluorescence; filed as Kd, often an IC50 or EC50 that approximates it; ≥ and ≤ were set here for values at or beyond the usual limits of such assays; conditions: source organism: Toxoplasma gondii RH
[15] = biological target: HLA-A*68:02; test: IEDB peptide-MHC binding, purified MHC/competitive/fluorescence; filed as Kd, often an IC50 or EC50 that approximates it; ≥ and ≤ were set here for values at or beyond the usual limits of such assays; conditions: source organism: Toxoplasma gondii RH
[16] = biological target: HLA-B*15:01; test: as above
[17] = biological target: HLA-B*40:01; test: as above
[18] = biological target: HLA-B*08:01; test: as above; conditions: source organism: Escherichia coli
[19] = biological target: HLA-B*07:02; test: IEDB peptide-MHC binding, purified MHC/competitive/fluorescence; ≥ and ≤ were set here for values at or beyond the usual limits of such assays
[20] = biological target: HLA-B*58:01; test: IEDB peptide-MHC binding, purified MHC/competitive/fluorescence; filed as Kd, often an IC50 or EC50 that approximates it; ≥ and ≤ were set here for values at or beyond the usual limits of such assays
[21] = biological target: HLA-B*18:01; test: IEDB peptide-MHC binding, purified MHC/direct/fluorescence; filed as Kd, often an IC50 or EC50 that approximates it; ≥ and ≤ were set here for values at or beyond the usual limits of such assays
[22] = biological target: HLA-B*40:01; test: as above
[23] = biological target: HLA-A*03:01; test: IEDB peptide-MHC binding, purified MHC/competitive/fluorescence; filed as Kd, often an IC50 or EC50 that approximates it; ≥ and ≤ were set here for values at or beyond the usual limits of such assays; conditions: source organism: Escherichia coli str. K-12 substr. MG1655
[24] = biological target: HLA-A*26:01; test: as above; conditions: source organism: Escherichia coli str. K-12 substr. MG1655
[25] = biological target: HLA-A*03:01; test: IEDB peptide-MHC binding, purified MHC/competitive/fluorescence; ≥ and ≤ were set here for values at or beyond the usual limits of such assays; conditions: source organism: Sudan ebolavirus
[26] = biological target: HLA-A*11:01; test: as above; conditions: source organism: Sudan ebolavirus
[27] = biological target: HLA-A*01:01; test: IEDB peptide-MHC binding, purified MHC/direct/fluorescence; filed as Kd, often an IC50 or EC50 that approximates it; ≥ and ≤ were set here for values at or beyond the usual limits of such assays; conditions: source organism: Mycobacterium tuberculosis
[28] = biological target: HLA-A*02:01; test: as above; conditions: source organism: Mycobacterium tuberculosis
[29] = biological target: HLA-A*03:01; test: as above; conditions: source organism: Mycobacterium tuberculosis
[30] = biological target: HLA-A*11:01; test: as above; conditions: source organism: Mycobacterium tuberculosis
[31] = biological target: HLA-A*29:02; test: as above; conditions: source organism: Mycobacterium tuberculosis
[32] = biological target: HLA-A*31:01; test: as above; conditions: source organism: Mycobacterium tuberculosis
[33] = biological target: HLA-A*69:01; test: as above; conditions: source organism: Mycobacterium tuberculosis
[34] = biological target: HLA-B*08:03; test: as above; conditions: source organism: Mycobacterium tuberculosis str. Haarlem
[35] = biological target: HLA-B*27:05; test: as above; conditions: source organism: Mycobacterium tuberculosis
[36] = biological target: HLA-B*44:02; test: as above; conditions: source organism: Mycobacterium tuberculosis
[37] = biological target: HLA-B*46:01; test: as above; conditions: source organism: Mycobacterium tuberculosis
[38] = biological target: HLA-B*57:01; test: as above; conditions: source organism: Mycobacterium tuberculosis
[39] = biological target: HLA-B*58:01; test: as above; conditions: source organism: Mycobacterium tuberculosis
[40] = biological target: HLA-C*03:03; test: as above; conditions: source organism: Mycobacterium tuberculosis C
[41] = source organism: Zaire ebolavirus
[42] = source organism: Salmonella enterica subsp. enterica serovar Typhi
[43] = source organism: Shigella flexneri 5 str. 8401
[44] = source organism: Alto Paraguay hantavirus
[45] = source organism: Escherichia coli str. K-12 substr. MG1655
[46] = source organism: Mycobacterium tuberculosis

AKRYEKSAM
Kd ([1]; source organism: Yersinia pestis Antiqua): 1050 nM | Kd [2]: ≥ 20000 nM

APPPQRAAM
Kd ([1]; source organism: Mycobacterium tuberculosis variant bovis BCG str. Pasteur 1173P2): 61 nM

APYMVGDVI
Kd ([3]; source organism: SARS-CoV1): ≥ 20000 nM | Kd [4]: 139 nM | Kd [5]: 11000 nM | Kd [6]: 80 nM | Kd [7]: 3580 nM | Kd [8]: ≥ 27300 nM

ASENSSAMV
IC50 [9, 41]: 43500 nM | IC50 [10]: ≥ 147000 nM

FAADKDSLY
Kd ([11]; source organism: Salmonella enterica subsp. enterica serovar Typhi str. CT18): ≥ 20000 nM | Kd [12, 42]: 313 nM | Kd [13, 42]: 0.2 nM

FLDPHPYYV
Kd ([3]; source organism: Toxoplasma gondii RH): ≤ 1 nM | Kd [14]: 47 nM | Kd [15]: 56.3 nM

GELESAIGL
Kd [16, 43]: ≥ 20000 nM | Kd [17, 43]: 2.8 nM

HENARLRAL
Kd [18]: 175 nM | Kd ([17]; source organism: Escherichia coli): 4.8 nM

IEVTNATEL
Kd ([17]; source organism: Influenza A virus): 5.6 nM

IPNSLHSLS
IC50 ([19]; source organism: Vaccinia virus Copenhagen): ≥ 136000 nM

ISASLAALF
Kd ([20]; source organism: Bacillus anthracis str. A0488): 1.7 nM

KEISNQEPL
Kd [21, 44]: 357 nM | Kd [22, 44]: 3.2 nM | Kd ([1]; source organism: Orthohantavirus dobravaense): 2070 nM

KVGITGFCY
Kd [23]: 2200 nM | Kd [16, 45]: 247 nM | Kd [20, 45]: 418 nM

MENMLDLLM
Kd ([17]; source organism: Yersinia frederiksenii ATCC 33641): 10.2 nM

RINEGWPAY
Kd [12, 45]: 481 nM | Kd [23]: 42.2 nM | Kd [24]: ≥ 20000 nM | Kd [16, 45]: 84 nM | Kd [13, 45]: 59.2 nM | Kd [20, 45]: ≥ 20000 nM

STDIPSATK
IC50 ([9]; source organism: Sudan ebolavirus): ≥ 76400 nM | IC50 [25]: 65600 nM | IC50 [26]: 1470 nM

VPSATKRWG
IC50 [19, 41]: 64600 nM

WMRGRGRAL
Kd [27]: ≥ 20000 nM | Kd [28]: ≥ 20000 nM | Kd [29]: ≥ 20000 nM | Kd [30]: ≥ 20000 nM | Kd [31]: ≥ 20000 nM | Kd [32]: ≥ 20000 nM | Kd [33]: ≥ 20000 nM | Kd [34]: ≥ 20000 nM | Kd [21, 46]: ≥ 20000 nM | Kd [35]: ≥ 20000 nM | Kd [22, 46]: ≥ 20000 nM | Kd [36]: ≥ 20000 nM | Kd [37]: ≥ 20000 nM | Kd [38]: ≥ 20000 nM | Kd [39]: ≥ 20000 nM

YLPDPTVGV
Kd [40]: ≥ 20000 nM | Kd ([11]; source organism: Mycobacterium tuberculosis C): ≥ 20000 nM
